Molecular target: 9G1
Test: BLI

B1: CVA16/SZ05 viral particles (complex)
chain 1: GDPIADMIDQTVNNQVNRSLTALQVLPTAANTEASSHRLGTGVVPALQAAETGASSNASDKNLIETRCVLNHHSTQETAIGNFFSRAGLVSIITMPTTGTQNTDGYVNWDIDLMGYAQLRRKCELFTYMRFDAEFTFVVAKPNGELVPQLLQYMYVPPGAPKPTSRDSFAWQTATNPSVFVKMTDPPAQVSVPFMSPASAYQWFYDGYPTFGEHLQANDLDYGQCPNNMMGTFSIRTVGTEKSPHSITLRVYMRIKHVRAWIPRPLRNQPYLFKTNPNYKGNDIKCTSTSRDKITTL
chain 2: SPSAEACGYSDRVAQLTIGNSTITTQEAANIVIAYGEWPEYCPDTDATAVDKPTRPDVSVNRFFTLDTKSWAKDSKGWYWKFPDVLTEVGVFGQNAQFHYLYRSGFCVHVQCNASKFHQGALLVAVLPEYVLGTIAGGTGNENSHPPYATTQPGQVGAVLTHPYVLDAGIPLSQLTVCPHQWINLRTNNCATIIVPYMNTVPFDSALNHCNFGLLVIPVVPLDFNAGATSEIPITVTIAPMCAEFAGLRQAVKQ
chain 3: GIPTELKPGTNQFLTTDDGVSAPILPGFHPTPPIHIPGEVRNLLEICRVETILEVNNLKTNETTPMQRLCFPVSVQSKTGELCAAFRADPGRDGPWQSTILGQLCRYYTQWSGSLEVTFMFAGSFMATGKMLIAYTPPGGSVPADRITAMLGTHVIWDFGLQSSVTLVVPWISNTHYRAHARAGYFDYYTTGIITIWYQTNYVVPIGAPTTAYIVALAAAQDNFTMKLCKDTEDIEQTANIQ
chain 4: GSQVSTQRSGSHENSNSASEGSTINYTTINYYKDAYAASAGRQDMSQDPKRFTDPVMDVIHEMAPPLK
modifications: biotin (EZ-Link Sulfo-NHS-LC-LC-Biotin labelling of the particles before BLI; sites not stated) | biotin (EZ-Link Sulfo-NHS-LC-LC-Biotin labelling of the particles before BLI; sites not stated) | biotin (EZ-Link Sulfo-NHS-LC-LC-Biotin labelling of the particles before BLI; sites not stated) | biotin (EZ-Link Sulfo-NHS-LC-LC-Biotin labelling of the particles before BLI; sites not stated)
In the case of B1, the Kd is reported as 0.46 nM and the koff is reported as 0.000631 s⁻¹.
